# In the supplement of paper PMC10724198:
# ± gives the standard deviation of the averaged measurements.
# System: Saccharomyces cerevisiae
# Experiment: protein stability index of tFT-peptide fusion (C-terminal peptide) (PSI (0-1 scale)); higher = more stable (slower turnover)
# Conditions: genetic background: wild type; temperature: 30 C
# Protocol: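 Multiplexed protein stability (MPS) profiling in S. cerevisiae. Random 12-aa peptides (tFT-X12 library) are fused to the C-terminus of a sfGFP-mCherry tandem fluorescent timer, after mCherry and a GGGS linker. Cells are FACS-sorted into 8 mCherry/sfGFP bins and deep-sequenced. The protein stability index (PSI) is the read-weighted bin average, scaled from 0 (unstable) to 1 (stable). Only peptides with >10 reads are reported; cells were grown at 30 °C in SC-His with glucose.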
# 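Further: PSI is a weighted mean of sequencing reads over stability bins, variants kept only with over 10 reads, mCherry proximal and sfGFP distal, peptide attached via GGGS linker.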
row,Sequence,protein stability index
1,GLCGGFGGLRGL,0.743 ± 0.031
2,GLCLFPAFSFPF,0.671 ± 0.089
3,GLCVFVNKPSIL,0.711 ± 0.011
4,GLCVGVGLVWKL,0.65 ± 0.07
5,GLDEGCRVGEEV,0.643 ± 0.013
6,GLFDLLCHCCWL,0.702 ± 0.05
7,GLFNIDLFRFVR,0.732 ± 0.041
8,GLFPGSRLRLVE,0.666 ± 0.011
9,GLFVDIRLHRRT,0.71 ± 0.017
10,GLGGGRCFWGVG,0.686 ± 0.061
11,GLGGGVGGGLVV,0.7045 ± 0.0046
12,GLGGSKKGEQRL,0.674 ± 0.012
13,GLGLVSWEAGGV,0.68 ± 0.025
14,GLGTRLSAVVLS,0.625 ± 0.039
15,GLGWPPGEARRV,0.621 ± 0.047
16,GLIATWMYKFVF,0.617 ± 0.038
17,GLLAIVLYEYTG,0.537 ± 0.0083
18,GLLARESLSFRH,0.675 ± 0.026
19,GLLGVGDFRTEF,0.638 ± 0.048
20,GLMTISFPSFFR,0.704 ± 0.068
21,GLMYDGVGCGGD,0.671 ± 0.012
22,GLNGGRLEGERR,0.731 ± 0.11
23,GLNLDLSGRLAF,0.703 ± 0.032
24,GLQFYPFLSVVR,0.617 ± 0.013
25,GLQIERAVGIRH,0.708 ± 0.028
26,GLRLGRVWVGGW,0.6647 ± 0.0026

row,Sequence,protein stability index
1,GLRRSTRSRLVF,0.593 ± 0.12
2,GLRRTGRISGSV,0.7 ± 0.0076
3,GLRSKLEKVQRG,0.726 ± 0.047
4,GLSCESLRLFFR,0.702 ± 0.015
5,GLSFSAALFSAF,0.673 ± 0.05
6,GLSHPPNFLPSG,0.6505 ± 0.00088
7,GLSIVGAALHSA,0.663 ± 0.025
8,GLSSGLWAFWWP,0.749 ± 0.049
9,GLTCKSTASCKV,0.693 ± 0.01
10,GLVCRKGSMGVR,0.671 ± 0.057
11,GLVFSFSACPVL,0.653 ± 0.066
12,GLVGCLFFCCIG,0.558 ± 0.013
13,GLVGLSLSSCGR,0.653 ± 0.088
14,GLVLPGHLTLAS,0.628 ± 0.08
15,GLVRGRLVGLED,0.646 ± 0.056
16,GLVVATECGGRP,0.648 ± 0.024
17,GLVVWFFQSPHF,0.597 ± 0.036
18,GLYAVHEAGWRP,0.701 ± 0.089
19,GLYVDRTVEVGG,0.6228 ± 0.0035
20,GMADVCRVGSRG,0.674 ± 0.033
21,GMRAGLGRWRSM,0.737 ± 0.1
22,GNELLINRVKPR,0.698 ± 0.0085
23,GNGRGKKEGPKN,0.657 ± 0.01
24,GNIKPNEDRGGP,0.793 ± 0.027
25,GNRVGQREEIEK,0.655 ± 0.023
26,GNRWSLTVTPNR,0.69 ± 0.028

row,Sequence,protein stability index
1,GNSAGSGGGGRF,0.706 ± 0.061
2,GNSNDPALQPKQ,0.68 ± 0.044
3,GPALLLHRLTAP,0.684 ± 0.066
4,GPCPHLGLVVES,0.703 ± 0.34
5,GPFPMRRTFRFA,0.667 ± 0.056
6,GPGRGWQGGPKL,0.739 ± 0.023
7,GPIGVMLCNHHS,0.674 ± 0.015
8,GPPPAPPPLDAL,0.734 ± 0.053
9,GPPPPATPTPPR,0.767 ± 0.075
10,GPRSLVEITITD,0.669 ± 0.029
11,GPSLLAAQAHTN,0.704 ± 0.038
12,GPSQLRLSSCSF,0.716 ± 0.041
13,GPSTPPPRAPGT,0.7045 ± 0.0031
14,GPTPAPSASRCF,0.6114 ± 0.0058
15,GPVFLPLFWAGV,0.6846 ± 0.0051
16,GPVGPGECYDYT,0.706 ± 0.00044
17,GPVLILLSNNEM,0.731 ± 0.061
18,GPVTPADASPHC,0.686 ± 0.034
19,GQFASFQSTRPP,0.754 ± 0.077
20,GQGKWGGGGDER,0.68276 ± 0.0003
21,GQKRKKKGGKEE,0.685 ± 0.065
22,GQLAERYRPARP,0.6903 ± 0.003
23,GQNASYFPRRTG,0.643 ± 0.052
24,GQRGGRGKENSD,0.629 ± 0.04
25,GQTTVLPSIYKR,0.673 ± 0.047
26,GQWCGRLLRSGS,0.6845 ± 0.0059

row,Sequence,protein stability index
1,GRCWAGAMGVVG,0.71 ± 0.015
2,GRETGGGKSRRK,0.687 ± 0.013
3,GRFKLCWWCCGV,0.724 ± 0.035
4,GRGAKPYIKQVY,0.721 ± 0.034
5,GRGGGGGLWVRV,0.651 ± 0.023
6,GRGGSIGEEWGG,0.693 ± 0.021
7,GRGLFRVVGLWV,0.614 ± 0.043
8,GRGLRWSWGCGG,0.693 ± 0.064
9,GRGLVSWEAGGV,0.716 ± 0.018
10,GRKSESEEEQRR,0.677 ± 0.052
11,GRLHHYGRCAQG,0.664 ± 0.02
12,GRLPPYLSRRLR,0.7039 ± 0.0012
13,GRLWGGIKGGMG,0.663 ± 0.0096
14,GRRLSGWGAWVV,0.724 ± 0.063
15,GRSAVRADFPFF,0.703 ± 0.16
16,GRSITTSCTTER,0.673 ± 0.036
17,GRSNRRPWRSGL,0.649 ± 0.018
18,GRTDRPTDINSN,0.677 ± 0.052
19,GRTNQKKEWIIR,0.718 ± 0.01
20,GRVAGNERGGGR,0.6083 ± 0.006
21,GRVGCGRNRLWS,0.67 ± 0.053
22,GRVGFSRSFKCC,0.641 ± 0.14
23,GRVGGGVEPCFV,0.679 ± 0.021
24,GRVGRGGAVGEW,0.671 ± 0.022
25,GRWRRWSSEGLG,0.684 ± 0.026
26,GSAGYLCQCSDI,0.681 ± 0.017

row,Sequence,protein stability index
1,GSCPPHPALPHL,0.713 ± 0.048
2,GSEAVQRKNESC,0.724 ± 0.08
3,GSFLSAQRPCPV,0.661 ± 0.023
4,GSFPPAAHFSPD,0.702 ± 0.043
5,GSGGGGGYVSGN,0.69 ± 0.021
6,GSKISIKDKAQV,0.685 ± 0.07
7,GSLSIVVCSFEF,0.542 ± 0.044
8,GSLVSKLGLGSG,0.69 ± 0.011
9,GSPAVACSSPFF,0.754 ± 0.073
10,GSRSKLPICGCL,0.809 ± 0.18
11,GSRSPEARARFV,0.68748 ± 0.00064
12,GSRSPPPLRPPP,0.6755 ± 0.0012
13,GSSCHFPARCPV,0.659 ± 0.018
14,GSSKVKEGNACR,0.694 ± 0.057
15,GSSRRMGEGVEM,0.69 ± 0.02
16,GSVMGVGLEKKI,0.732 ± 0.052
17,GSVRLLDNLQRL,0.663 ± 0.057
18,GSVTIDSMIHMR,0.667 ± 0.037
19,GSWLGVGDRLVC,0.717 ± 0.17
20,GSWMSGLWQTPV,0.722 ± 0.065
21,GTCWAGALGVVG,0.684 ± 0.04
22,GTDGGRSSLGCR,0.718 ± 0.026
23,GTDVGKVSASQG,0.638 ± 0.037
24,GTGGIFAVAPTL,0.737 ± 0.044
25,GTGRRRGWGVMG,0.664 ± 0.026
26,GTLWPLPCRPDG,0.5607 ± 0.0021

row,Sequence,protein stability index
1,GTMAVWKGQRSG,0.698 ± 0.04
2,GTNARGGPINIG,0.675 ± 0.0065
3,GTRQLGRTEPGE,0.695 ± 0.038
4,GTTDVHLLLECE,0.729 ± 0.011
5,GTTNRMVTQKGF,0.712 ± 0.024
6,GVCCLWVGFQGG,0.704 ± 0.017
7,GVCGVSKGRRHR,0.701 ± 0.018
8,GVCWGNFGWRAV,0.6839 ± 0.005
9,GVDDGGGCCRVR,0.773 ± 0.009
10,GVDGVLGGWGCG,0.786 ± 0.1
11,GVDVSCVSPFGG,0.705 ± 0.03
12,GVECGSVCGGGG,0.651 ± 0.013
13,GVEFKVVSFVVD,0.646 ± 0.094
14,GVEVSVFFFHFL,0.576 ± 0.097
15,GVFCWVGLSAFL,0.5866 ± 0.004
16,GVGGGEECHGVG,0.556 ± 0.018
17,GVGGGGACRPVG,0.709 ± 0.15
18,GVGGGMGMGERW,0.788 ± 0.18
19,GVGGGMWCGFGV,0.701 ± 0.074
20,GVGLKMLSVGDI,0.6119 ± 0.002
21,GVGLSGVGGLGR,0.6439 ± 0.004
22,GVGSVADWGGVG,0.599 ± 0.018
23,GVGVHAASGGEN,0.723 ± 0.009
24,GVGVLGGGYMCL,0.647 ± 0.069
25,GVGWFGRGTVGW,0.676 ± 0.035
